Data reported in the nanobody polyreactivity screen of Harvey et al. (2022).

test: yeast display, Sf9 membrane polyspecificity reagent, FACS + sequencing; frameworks hold sequencing errors
Method in brief: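 In a synthetic yeast display library (Saccharomyces cerevisiae BJ5465), nanobody expression was induced with galactose for 36–48 hours. FACS gates were set low and high (top ~1%) using anti-HA fluorescence for expression and streptavidin fluorescence for binding of the Sf9 membrane reagent. Each polyreactivity label is drawn from the gate of origin.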

Row | Sequence | polyreactivity (PSR sort gate)
1 | QVQLVESGGGLVQAGGSLRLSCAASGFTFQYYAMGWYRQAPGKERELVAAISGTSGSTRYADSVKGRFTISRDNSKNTVYLQMNSLKPEDSAVYYCAAGSRGKVPVGLRYGYYYWGQGTQVTVSS | high polyreactivity
2 | QVQLVESGGGLVQAGGSLRLSCAASGFTFQYYAMGWYRQAPGKERELVAAISWSGDSTYYADSVKGRFTISRDNAKNTVYLQMNSLKPEDTAVYYCAVYYTRGYDYWGQGTQVTVSS | high polyreactivity
3 | QVQLVESGGGLVQAGGSLRLSCAASGFTFQYYAMGWYRQAPGKERELVATITTSGGNTYYADSVKGRFTISRDNAKNTVYLQMNSLKPEDTAVYYCAARNARYVHTMEYWGQGTQVTVSS | high polyreactivity
4 | QVQLVESGGGLVQAGGSLRLSCAASGFTFQYYAMGWYRQAPGKERELVPSISWSGGSTYYADSVKGRFTISRDHAKNTVYFQMNSLKPEDTAVYYCADSVTYLFCSARFSAYGYWGQGTQVTVSS | high polyreactivity
5 | QVQLVESGGGLVQAGGSLRLSCAASGFTFQYYTKGWYRQAPGKERELVAAISARGGSTYYADSVKGRFTISRDNAKNTVYLQMNSLKPEDTAVYYCNTVGIGAWGYSYPDEDNYWGQGTQVTVSS | low polyreactivity
6 | QVQLVESGGGLVQAGGSLRLSCAASGFTFRANGMGWSRQAPGKERELVAVITSGGTTNYADSVKGRFTISRDNAKNTVYLQMNSLKPEDTAVYYCAVPYEPTSIPERRDYYRADDYWGQGTQVTVSS | low polyreactivity
7 | QVQLVESGGGLVQAGGSLRLSCAASGFTFRANGMGWYRQAPGKERELVATITSGGTTNYADSVKGRLTISRDNAKNTVYLQMNSLKPEDTAVYYCNAGSVSDRQMDYWGQGTQVTVSS | low polyreactivity
8 | QVQLVESGGGLVQAGGSLRLSCAASGFTFRAYAMGWSRQAPGKERELVAAISTGGGSTYYADSVKGRFTISRDNAKNTVYLQMNSLKPEDTAVYYCNALPQRRYYYWGQGTQVTVSS | high polyreactivity
9 | QVQLVESGGGLVQAGGSLRLSCAASGFTFRAYVMGWDRQAPGKERELVASISKRGGNTYYADSVKGRFTISRDNAKNTVYLQMNSLKPEDTAVYYCAVDFFGDRGDYDYWGQGTQVTVSS | high polyreactivity
10 | QVQLVESGGGLVQAGGSLRLSCAASGFTFRDYAMGWYRQAPGKERELVAAITRGGSTNYADSVKGRFTISRDNAKNTVYLQMNSLKPEDTAVYYCAATPSWRWHVFAEFNSWGQGTQVTVSS | high polyreactivity
11 | QVQLVESGGGLVQAGGSLRLSCAASGFTFRDYAMGWYRQAPGKERELVAAITRRGGNTYYADSVKGRFTISRDNAKNTVYLQMNSLKPEDTAVYYCAARALSGHYDYWGQGTQVTVSS | high polyreactivity
12 | QVQLVESGGGLVQAGGSLRLSCAASGFTFRDYAMGWYRQAPGQERELVATITWRVGSTFYADSVKGRFTISRDNAKNTVYLQMNTLKPEDTADDYCAARWSTSYGPFDYWGQGTQVTVSS | low polyreactivity
13 | QVQLVESGGGLVQAGGSLRLSCAASGFTFRDYVMGWYRQAPGKERELVAAISRSGASTYYADSVKGRFTISRDNAKNTVYLQMNSLKPEDTAVYYCAKTQAGYSPGTYYYWGQGTQVTVSS | high polyreactivity
14 | QVQLVESGGGLVQAGGSLRLSCAASGFTFREYAMGWYRQAPGKERELVAAIDWSGGSTYYADSVKGRFTISRDNAKNTVYLQMNRLKPEDTAVYYCNVDFYDWYVYLWYVDYDYCGQGTQVTVSS | high polyreactivity
15 | QVQLVESGGGLVQAGGSLRLSCAASGFTFRFNAMGWYRHAPGKERELVAGITSGGTTNYAYSVKGRFTISRDNAKNTVYLHMNSLKPEDTAVYYCNAAWYRWKQRYDYWGQGTLVTVSS | low polyreactivity
16 | QVQLVESGGGLVQAGGSLRLSCAASGFTFRFYAMGWYRQAPGKERELVATISSRGGRTYYADSVKGRFTISRDNAKNTVYLQMNSLKPEDTAVYYCAADQKSQYQGNYWGQGTQVTVSS | high polyreactivity
